US20100310509A1 (published 2010)

B1: human leukemia inhibitory factor (LIF) (ligand)
chain: not shown
notes: Purified recombinant protein; also called hLIF
B2: OSM-WT ('AGA' modified human Oncostatin M, referred to as wild-type OSM) (ligand)
chain: AAIGSCSKEYRVLLGQLQKQTDLMQDTSRLLDPYIRIQGLDVPKLREHCRERPGAFPSEETLRGLGRRGFLQTLNATLGCVLHRLADLEQRLPKAQDLERSGLNIEDLEKLQMARPNILGLRNNIYCMAQLLDNSDTAEPTKAGAGASQPPTPTPASDAFQRKLEGCRFLHGYHRFMHSVGRVFSKWGESPN
notes: also called hOSM with AGA modification; not shown: N-terminal FLAG tag left after thrombin removal of GST

Experiments:
[1] = biological target: T1, soluble human LIFR (leukemia inhibitory factor receptor) (human, UniProt P42702 45-833); assay: SPR, ratio of KD values
T1 construct: extracellular domain; Bought; also called soluble LIFR
T1 sequence (looked up): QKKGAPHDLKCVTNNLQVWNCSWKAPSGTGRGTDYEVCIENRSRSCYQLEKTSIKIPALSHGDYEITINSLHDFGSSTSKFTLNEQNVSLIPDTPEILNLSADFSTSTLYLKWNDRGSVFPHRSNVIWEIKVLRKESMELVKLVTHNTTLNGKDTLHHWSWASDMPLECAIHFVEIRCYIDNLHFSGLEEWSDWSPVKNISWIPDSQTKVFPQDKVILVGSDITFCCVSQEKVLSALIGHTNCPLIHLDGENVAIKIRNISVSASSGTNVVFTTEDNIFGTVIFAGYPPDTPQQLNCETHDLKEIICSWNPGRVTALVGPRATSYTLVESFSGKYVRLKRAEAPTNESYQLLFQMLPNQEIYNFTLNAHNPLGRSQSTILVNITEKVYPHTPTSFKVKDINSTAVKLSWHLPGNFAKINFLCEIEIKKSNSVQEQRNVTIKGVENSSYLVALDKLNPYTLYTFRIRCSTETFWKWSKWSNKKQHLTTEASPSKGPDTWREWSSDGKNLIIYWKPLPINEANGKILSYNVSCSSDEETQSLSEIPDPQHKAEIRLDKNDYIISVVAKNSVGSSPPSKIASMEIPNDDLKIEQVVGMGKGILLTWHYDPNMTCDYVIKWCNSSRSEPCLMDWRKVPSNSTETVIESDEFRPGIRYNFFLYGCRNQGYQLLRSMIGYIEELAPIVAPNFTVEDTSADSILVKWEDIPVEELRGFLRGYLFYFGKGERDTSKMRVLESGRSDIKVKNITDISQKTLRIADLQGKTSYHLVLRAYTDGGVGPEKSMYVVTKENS
Protocol: (§1) A concentration series of soluble LIFR (# 249-LR-050/CF, R&D Systems, Minneapolis, Minn.), soluble OSMR (# 4389-OR-50, R&D Systems, Minneapolis, Minn.) or soluble gp130 (# 228-GP-050/CF, R&D Systems, Minneapolis, Minn.) in running buffer (10 mM HEPES pH 7.4, 150 mM NaCl, 3.4 mM EDTA, 0.005% Tween-20) were injected over both channels at a flow rate of 25 μl/min. Following a dissociation period of 3 minutes, the surfaces were regenerated by injecting 10 mM NaOH for 30 seconds. Rate constants for association (kₐ) and dissociation (kd) rates were derived by global analysis of the response curves fit to a 1:1 kinetic model (Equations 1 and 2) using QDat software (BioLogic Software, Ltd. Knoxville Tenn. and Nomadics, Inc. Stillwater, Okla.) using 1:1 stoichiometry.
(§2) Reducing the size of the BC loop improves OSM's affinity towards LIFR and OSMR. […] To directly measure the binding kinetics of these ligand-receptor interactions, surface plasmon resonance (SPR) was used. The cytokines (LIF, OSM-WT, OSM-M1 and OSM-M2) were immobilized on the sensor chip surface, while recombinant soluble receptors were used as the analytes (FIG. 11).

[2] = biological target: T2, soluble gp130 (R&D Systems # 228-GP-050/CF) (UniProt P40189 23-619, limits assumed); assay: SPR, ratio of KD values
T2 construct: extracellular domain; Bought
T2 sequence (looked up): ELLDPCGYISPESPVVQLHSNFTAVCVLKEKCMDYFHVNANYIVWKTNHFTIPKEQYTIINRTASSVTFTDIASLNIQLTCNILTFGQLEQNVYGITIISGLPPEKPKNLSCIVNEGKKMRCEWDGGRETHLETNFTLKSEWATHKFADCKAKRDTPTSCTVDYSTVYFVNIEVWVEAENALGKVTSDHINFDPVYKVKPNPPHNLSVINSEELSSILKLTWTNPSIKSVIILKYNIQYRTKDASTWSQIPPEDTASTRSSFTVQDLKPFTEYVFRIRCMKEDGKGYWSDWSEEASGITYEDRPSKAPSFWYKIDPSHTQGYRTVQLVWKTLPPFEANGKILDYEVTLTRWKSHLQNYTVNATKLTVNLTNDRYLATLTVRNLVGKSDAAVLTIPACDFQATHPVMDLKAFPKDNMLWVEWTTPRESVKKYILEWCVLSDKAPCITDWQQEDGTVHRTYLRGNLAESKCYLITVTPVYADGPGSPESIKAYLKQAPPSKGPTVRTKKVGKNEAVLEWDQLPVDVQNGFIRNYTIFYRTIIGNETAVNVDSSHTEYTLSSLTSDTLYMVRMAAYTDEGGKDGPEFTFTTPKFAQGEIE
Protocol: as §1, §2

Row | Binder | fold higher affinity than towards gp130 [1] | fold higher affinity than towards LIFR [2]
1 | B1 | 23 fold | 
2 | B2 |  | 2 fold
